Assay: soluble on expression in E. coli; label from the status in PepcDB or PDB records

Sequence | soluble on expression in E. coli
MGSDKIHHHHHHMTVDTRPAVGNPGYATSSPELERWLARHISEGFGAESLVLSMLRSGYDAAFARSAVATAMGHRRPDASATQPAPRLARREVPVLFSLQSPSIRLYQHLLSDAECDALVELARGRLARSPVINPDTGDENLIDARTSMGAMFQVGEHTLIQRIEDRIAAVLGVPVDHGEGLQILNYKPGGEYQPHFDFFNPKRPGEARQLRVGGQRTATLVIYLNTPQAGGATAFPRIGLEVAPVKGNAVYFSYLQPDGKLDERTLHAGLPVQSGEKWIATKWLREHPYRAGA | not soluble
MSLFAAQYIGNKSFNVVEGHAIAPQAGEVRLDVGYVGICGTDMHIYHGVMDQRVSIPQTIGHEISGVVAQIGEGVEGFTVGEKVVVRPLDWCGECPTCEAGLTHICQNLKFMGIDTPGAFQSSWTVKARTLHKLPAGVDLKQGALVEPLSVACHDVRRSRLKAGEKAVILGGGPIGQLVAAVAKSVGAEVLVSEPNDSRREFADELGVKSVNPMDTDLAAYVDQWTGTKGADVVFEVSGVLPAIQSMTQIAGRRGRIVMVAIHSTAPPIDLFQFFWKELELLGARVYEAADFDWAIELIASGQIDLKPFISSVSPLADIGSAFANMDGNPQGMKALVECNAEEGHHHHHH | soluble
MATTEQLANTTQKEPVIDLDQDSNMEIAHKIQNQTKRLPISEPANKNKNVTSKQNKETNRKTFEKSKRMATSTIQDRVLRTQKTRKDKESTTEKVNAILKKSAKQIKVREEEEGDDDLEDELTLYPSKRKMMVGSKNRKRTIKPNRDTIAEEQETDGEHGVKQRAFDPKQRHRQCPECLLLFSTPDKLKRHMKSHGDVPDVYCSLCNTPIKFKYNLRVHLEKCYDKMKLSLHDSMLSKVYPDFVRKLQEAAKNPVLPMPTLEGMPYEFTLKGVVGFDTSLDITKDLMLAKYEQKKQRELAGIDSDDSDELDYFDDFPDE | not soluble
MGHHHHHHSHMDVVDPDIFNRDPRDHYDLLQRLGGGTYGEVFKARDKVSGDLVALKMVKMEPDDDVSTLQKEILILKTCRHANIVAYHGSYLWLQKLWICMEFCGAGSLQDIYQVTGSLSELQISYVCREVLQGLAYLHSQKKIHRDIKGANILINDAGEVRLADFGISAQIGATLARRLSFIGTPYWMAPEVAAVALKGGYNELCDIWSLGITAIELAELQPPLFDVHPLRVLFLMTKSGYQPPRLKEKGKWSAAFHNFIKVTLTKSPKKRPSATKMLSHQLVSQPGLNRGLILDLLDKLKNPGKGPSIGDIEDEEPELPPAIPRRIRSTHRSSSLGIPDADCCRRHMEFRKLRGMETRPPANTARLQPPRDLRSSSPRKQLSES | soluble
MVGHVLYGWRDRPRRGEVDYPHTENIRMGHTWDSKRDVSKFDKSWSDQNIVDAIVATLENPDYALSGKVKRVVWKDIHGTTVRVSYNVCLMVGVISDRAYSDTPDRKAKRIVE | not soluble
MSGSLEIPGLDDGLLPVETGYGLFQGTAKKRVVICNDNDKFRHSGPLPRALCGSFAAIGLLPLPVVETRPAPPPKVAPITPALQGKACGQAVFEGLRNKNAVETVDNLPALRQTARTGKRWKALESLMQETPAIIYKIVPETLWTAARAEGMFEGAAIDLTDGFIHFSTAKQVAETAARHFSGQVDLLLIAVDGAALGDKLVYEPSRGGDLFPHLYAPLPFSAVLWETPLSLDHDGQHQFPEILLEHHHHHH | not soluble
MMFNFYQFLYNLQNVSPFIDFSVLKQLTHTKMRENEPARFETRSFSQLIDHARSWKTEVRGMTTQGFTKISLMRAEKDRLNMYAISSVPGTNTQSIFSVTIPLELVEKAQVADRKFELKLKSGYNVDSYIRKTPPSAEFTLQCERQRSQVVTGISDYEIRNGKMILMAGDQLFRYNPLNEALAAIPIAVPDDQSSTEPMDISEGSITSGTKGCSNEAPQSSTVPPVTRIPIKKPTTSTEKPATAPPTNNFVSSAKVCPADSSLLAYVLNKQVYIEKNGKIIHRTSSNSKHITNGVPSYIVQEELERFEGIWWSESKTRLLYEHVNEEKVAESQFGVNGDPPVAPMKYPRAGTKNAYSTLRMVILENGKAYDVPLKDEVIYKHCPFYEYITRAGFFSDGTTVWVQVMSRDQAQCSLLLIPYTDFLLPEELGGSIKEDNLQLSTDLNMGVWDDKSHEETMEKPPRGKLRGTVQIHKARNDYWINTHNAIYPLKITDEEHPMYEFIYCLEKPNGSCLALISAELDQNGYCRHTEEKLLMAENFSINKSMGIVVDEVRELVYYVANESHPTEWNICVSHYRTGQHAQLTESGICFKSERANGKLALDLDHGFACYMTSVGSPAECRFYSFRWKENEVLPSTVYAANITVSGHPGQPDLHFDSPEMIEFQSKKTGLMHYAMILRPSNFDPYKKYPVFHYVYGGPGIQIVHNDFSWIQYIRFCRLGYVVVFIDNRGSAHRGIEFERHIHKKMGTVEVEDQVEGLQMLAERTGGFMDMSRVVVHGWSYGGYMALQMIAKHPNIYRAAIAGGAVSDWRLYDTAYTERYMGYPLEEHVYGASSITGLVEKLPDEPNRLMLVHGLMDENVHFAHLTHLVDECIKKGKWHELVIFPNERHGVRNNDASIYLDARMMYFAQQAIQGFGPTTAAPRQGPL | not soluble
MGSDKIHHHHHHMIRGLRQIEPYVAGVQPAERKMIKLNTNENAYGASPKVREALANFDVDNLRKYSTLEQADLRAALANNLKVKPEQLMIANGSDDVLSIAFLAFFNNDEPVLFPDLTYGFYKVWADLYRVNYHEIPLAEDFTINTEDYLADNGGIILTNPNAPTGIYKPLNEIEKLLKANQDTVVIIDEAYISFGGQSALSLLNKYNNLVITRTFSKDAALAGLRVGYAIANEPLIAVMNAVKHSINPYSVDLLAERLATAAVEDWSYYQENAKKIQKTRAWFSEQLVKQGFDVLPSQANFVLTKPHDLATAKLFEELEARKIYVRYFPKVERIKDYLRISMGTQEEMEEVVKAIEEIRG | not soluble
MSLKPINVVIIENENISRVGAAAILSETGKIQVCGLAKTGKEGIETVDQQKPDIVVINIDLPDINGTDVISLIKCKHTSIKIVVMTANSSRDTINAAISNGADCYYCKNNAREEVGERFIEAVMAAYNNESWIDPTINRILIDNLRSNDTADRDSLDLLSDFSNKEITVLKLAAGGMKNNEIANVMYVSEGTVRSYLHNSFIKLGVKDRLNAIREAIRLGILSFADEGHHHHHH | soluble
MGSDKIHHHHHHMNDYDNNSNINEDAWNKETYSAWVKRFGTPDTAAKKISKDPSKILSVLHEKLGDVKGKKIMNIMGSNGSKAVALALLGADVTVVDFSKGNMDYALDLAKEADVKIDYILSDILKLPEDKLTADYDIVFAEMGIIHYFIDLKPFIKTINRLLKEGGLFVLRDFHPVSTKLITSRGSTAKVRKHKVTGDYFDTSLEEKDAAFSKYLIDNKEPEKVLLRKWTLGEIVTSVAEGGFKIKKLDEEPNLSCDNFDKGIPKSFTLTSEKLS | not soluble
MESTIEGEDENYVKVYITDNLDSEHELTIDKNSGDIPYHQCDAYADDANRRTSEENEYNNQARRYAKYYVFAQRGYDTVEHIENPAYVDAVRRAIADLSPAEFKRYFGALYRQLRSHHDDTERPRELPSGVRKPDAVVYEPEIYLGLEAVGEDVAERAQALATAHGFDLEESAEVQPVSELSDETLSRWKAFGDDLAAIVTREDLTTNLTITGVSGLHIGYPNRLGKHEVDEADSPFTHQADARLSLLPYAPESFDEFPAYLDHHLRCQVRDCFLKMGVVPPEEFHVVGFGKFRDSRRYDHFEMYPEVHKRDGNHTPLLG | not soluble
MSLKEFDFIKRYLQTGTDNDVVLGIGDDAAIVRPREGFDLCFSADMLLKDRHFFADVKPEDLAWKVLAVNISDMAAMGAIPRWVLLSAALPELDEVWLKRFCGSFFGLAKKFGVTLIGGDTTKGDMAFNVTIIGELPKGRALRRDAAVAGDDIWVSGRIGMAAAALNCRLKRCVLPDEVFAECEQKLLHPEPRVGLGLALLPFARAAQDVSDGLAQDLGHILTASGKGAEIWADSLPSLSVLKDILPRAQWLSYTLAGGDDYELVFTAPESCRSRVFDAAERCGVPVTRIGKINGGCRLKVLDADGRELELHSLGFDHFGEGHHHHHH | soluble
MKHILIIGATGQIGSELTMELRRRYGNTNVVAGYIQGAEPKGELKESGPSAVVDVTNGEMIESVVKEYHIDTIYNLAALLSVVAESKPKLAWKIGIDGLWNVLEVAREQGCAVFTPSSIGSFGASTPHTQTPQDTIQRPRTMYGVTKVTTELLSDYYFNKYGVDTRAVRFPGIISNVTPPGGGTTDYAVDIYYSAVRGEKFVCPIKEGTLMDMMYMPDALNAAIMLMEADPTKLIHRNAFNIASMSFDPETIFHAIKKHVPAFEMIYDVDPLKQRIADSWPDSLDDTCAREEWGWKPAYDLESMTVDMLEKLREKLKK | not soluble
